Source: the supplement of paper PMC11316812
± gives the standard deviation of the averaged measurements.

Legend:
MCF7 = test: percentage of EdU-negative (G0-arrested) nuclei per well, 72 h; higher = more G0 arrest; conditions: reference: sequence is the full UniProt precursor, the tested protein was the secreted form or ectodomain
hTERT-HMEC = test: as above; conditions: reference: sequence is the full UniProt precursor, the tested protein was the secreted form or ectodomain
[1] = protein concentration 0.0225 µM
[2] = protein concentration 0.018725 µM
[3] = protein concentration 0.18725 µM
[4] = protein concentration 0.02382 µM
[5] = protein concentration 0.03125 µM
[6] = protein concentration 0.2382 µM
[7] = protein concentration 0.3125 µM
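Note: secreted proteins added to cultured cells, EdU pulse at the end, nuclei found by Hoechst imaging, EdU status from nuclear versus surrounding ring intensity ratio, PBS as neutral control.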

Sequence | percentage of EdU-negative (MCF7; [1]) | percentage of EdU-negative (MCF7; protein concentration 0.225 µM) | percentage of EdU-negative (hTERT-HMEC; [1]) | percentage of EdU-negative (hTERT-HMEC; protein concentration 0.225 µM) | other results
MQPPRERLVVTGRAGWMGMGRGAGRSALGFWPTLAFLLCSFPAATSPCKILKCNSEFWSATSGSHAPASDDTPEFCAALRSYALCTRRTARTCRGDLAYHSAVHGIEDLMSQHNCSKDGPTSQPRLRTLPPAGDSQERSDSPEICHYEKSFHKHSATPNYTHCGLFGDPHLRTFTDRFQTCKVQGAWPLIDNNYLNVQVTNTPVLPGSAATATSKLTIIFKNFQECVDQKVYQAEMDELPAAFVDGSKNGGDKHGANSLKITEKVSGQHVEIQAKYIGTTIVVRQVGRYLTFAVRMPEEVVNAVEDWDSQGLYLCLRGCPLNQQIDFQAFHTNAEGTGARRLAAASPAPTAPETFPYETAVAKCKEKLPVEDLYYQACVFDLLTTGDVNFTLAAYYALEDVKMLHSNKDKLHLYERTRDLPGRAAAGLPLAPRPLLGALVPLLALLPVFC [Q96B86] | 25.3 ± 1.1% | 26.4 ± 2% | 5.15 ± 0.82% | 6.53 ± 1.7% | 
MQPRRQRLPAPWSGPRGPRPTAPLLALLLLLAPVAAPAGSGDPDDPGQPQDAGVPRRLLQQAARAALHFFNFRSGSPSALRVLAEVQEGRAWINPKEGCKVHVVFSTERYNPESLLQEGEGRLGKCSARVFFKNQKPRPTINVTCTRLIEKKKRQQEDYLLYKQMKQLKNPLEIVSIPDNHGHIDPSLRLIWDLAFLGSSYVMWEMTTQVSHYYLAQLTSVRQWKTNDDTIDFDYTVLLHELSTQEIIPCRIHLVWYPGKPLKVKYHCQELQTPEEASGTEEGSAVVPTELSNF | 24.2 ± 1.8% | 28 ± 0.37% | 5.08 ± 0.6% | 4.8 ± 0.36% | 
MQPRTPLVLCVLLSQVLLLTSAEDLDCTPGFQQKVFHINQPAEFIEDQSILNLTFSDCKGNDKLRYEVSSPYFKVNSDGGLVALRNITAVGKTLFVHARTPHAEDMAELVIVGGKDIQGSLQDIFKFARTSPVPRQKRSIVVSPILIPENQRQPFPRDVGKVVDSDRPERSKFRLTGKGVDQEPKGIFRINENTGSVSVTRTLDREVIAVYQLFVETTDVNGKTLEGPVPLEVIVIDQNDNRPIFREGPYIGHVMEGSPTGTTVMRMTAFDADDPATDNALLRYNIRQQTPDKPSPNMFYIDPEKGDIVTVVSPALLDRETLENPKYELIIEAQDMAGLDVGLTGTATATIMIDDKNDHSPKFTKKEFQATVEEGAVGVIVNLTVEDKDDPTTGAWRAAYTIINGNPGQSFEIHTNPQTNEGMLSVVKPLDYEISAFHTLLIKVENEDPLVPDVSYGPSSTATVHITVLDVNEGPVFYPDPMMVTRQEDLSVGSVLLTVNATDPDSLQHQTIRYSVYKDPAGWLNINPINGTVDTTAVLDRESPFVDNSVYTALFLAIDSGNPPATGTGTLLITLEDVNDNAPFIYPTVAEVCDDAKNLSVVILGASDKDLHPNTDPFKFEIHKQAVPDKVWKISKINNTHALVSLLQNLNKANYNLPIMVTDSGKPPMTNITDLRVQVCSCRNSKVDCNAAGALRFSLPSVLLLSLFSLACL | 24.7 ± 1.2% | 27.1 ± 0.61% | 4.14 ± 0.25% | 9.2557 ± 0.0081% | 
MQPTGREGSRALSRRYLRRLLLLLLLLLLRQPVTRAETTPGAPRALSTLGSPSLFTTPGVPSALTTPGLTTPGTPKTLDLRGRAQALMRSFPLVDGHNDLPQVLRQRYKNVLQDVNLRNFSHGQTSLDRLRDGLVGAQFWSASVSCQSQDQTAVRLALEQIDLIHRMCASYSELELVTSAEGLNSSQKLACLIGVEGGHSLDSSLSVLRSFYVLGVRYLTLTFTCSTPWAESSTKFRHHMYTNVSGLTSFGEKVVEELNRLGMMIDLSYASDTLIRRVLEVSQAPVIFSHSAARAVCDNLLNVPDDILQLLKKNGGIVMVTLSMGVLQCNLLANVSTVADHFDHIRAVIGSEFIGIGGNYDGTGRFPQGLEDVSTYPVLIEELLSRSWSEEELQGVLRGNLLRVFRQVEKVREESRAQSPVEAEFPYGQLSTSCHSHLVPQNGHQATHLEVTKQPTNRVPWRSSNASPYLVPGLVAAATIPTFTQWLC [Q9H4B8] | 26.5 ± 1.8% | 27.6 ± 3% | 5.33 ± 1.2% | 5.49 ± 1.1% | 
MQQPFNYPYPQIYWVDSSASSPWAPPGTVLPCPTSVPRRPGQRRPPPPPPPPPLPPPPPPPPLPPLPLPPLKKRGNHSTGLCLLVMFFMVLVALVGLGLGMFQLFHLQKELAELRESTSQMHTASSLEKQIGHPSPPPEKKELRKVAHLTGKSNSRSMPLEWEDTYGIVLLSGVKYKKGGLVINETGLYFVYSKVYFRGQSCNNLPLSHKVYMRNSKYPQDLVMMEGKMMSYCTTGQMWARSSYLGAVFNLTSADHLYVNVSELSLVNFEESQTFFGLYKL | 25.2 ± 0.97% | 29 ± 2.4% | 4.44 ± 0.26% | 7.46 ± 2.2% | 
MQRGAALCLRLWLCLGLLDGLVSGYSMTPPTLNITEESHVIDTGDSLSISCRGQHPLEWAWPGAQEAPATGDKDSEDTGVVRDCEGTDARPYCKVLLLHEVHANDTGSYVCYYKYIKARIEGTTAASSYVFVRDFEQPFINKPDTLLVNRKDAMWVPCLVSIPGLNVTLRSQSSVLWPDGQEVVWDDRRGMLVSTPLLHDALYLQCETTWGDQDFLSNPFLVHITGNELYDIQLLPRKSLELLVGEKLVLNCTVWAEFNSGVTFDWDYPGKQAERGKWVPERRSQQTHTELSSILTIHNVSQHDLGSYVCKANNGIQRFRESTEVIVHENPFISVEWLKGPILEATAGDELVKLPVKLAAYPPPEFQWYKDGKALSGRHSPHALVLKEVTEASTGTYTLALWNSAAGLRRNISLELVVNVPPQIHEKEASSPSIYSRHSRQALTCTAYGVPLPLSIQWHWRPWTPCKMFAQRSLRRRQQQDLMPQCRDWRAVTTQDAVNPIESLDTWTEFVEGKNKTVSKLVIQNANVSAMYKCVVSNKVGQDERLIYFYVTTIPDGFTIESKPSEELLEGQPVLLSCQADSYKYEHLRWYRLNLSTLHDAHGNPLLLDCKNVHLFATPLAASLEEVAPGARHATLSLSIPRVAPEHEGHYVCEVQDRRSHDKHCHKKYLSVQALEAPRLTQNLTDLLVNVSDSLEMQCLVAGAHAPSIVWYKDERLLEEKSGVDLADSNQKLSIQRVREEDAGRYLCSVCNAKGCVNSSASVAVEGSEDKGSMEIVILVGTGVIAVFFWVLLLLIFCNMRRPAHADIKTGYLSIIMDPGEVPLEEQCEYLSYDASQWEFPRERLHLGRVLGYGAFGKVVEASAFGIHKGSSCDTVAVKMLKEGATASEHRALMSELKILIHIGNHLNVVNLLGACTKPQGPLMVIVEFCKYGNLSNFLRAKRDAFSPCAEKSPEQRGRFRAMVELARLDRRRPGSSDRVLFARFSKTEGGARRASPDQEAEDLWLSPLTMEDLVCYSFQVARGMEFLASRKCIHRDLAARNILLSESDVVKICDFGLARDIYKDPDYVRKGSARLPLKWMAPESIFDKVYTTQSDVWSFGVLLWEIFSLGASPYPGVQINEEFCQRLRDGTRMRAPELATPAIRRIMLNCWSGDPKARPAFSELVEILGDLLQGRGLQEEEEVCMAPRSSQSSEEGSFSQVSTMALHIAQADAEDSPPSLQRHSLAARYYNWVSFPGCLARGAETRGSSRMKTFEEFPMTPTTYKGSVDNQTDSGMVLASEEFEQIESRHRQESGFSCKGPGQNVAVTRAHPDSQGRRRRPERGARGGQVFYNSEYGELSEPSEEDHCSPSARVTFFTDNSY |  |  |  |  | percentage of EdU-negative (MCF7; [2]): 25.2 ± 1.4%; percentage of EdU-negative (MCF7; [3]): 25.66 ± 0.24%; percentage of EdU-negative (hTERT-HMEC; [2]): 5.19 ± 0.73%; percentage of EdU-negative (hTERT-HMEC; [3]): 6.63 ± 1.2%
MQRLCVYVLIFALALAAFSEASWKPRSQQPDAPLGTGANRDLELPWLEQQGPASHHRRQLGPQGPPHLVADPSKKQGPWLEEEEEAYGWMDFGRRSAEDEN |  |  |  |  | percentage of EdU-negative (MCF7; [4]): 24.94 ± 0.082%; percentage of EdU-negative (MCF7; [5]): 29.3 ± 0.76%; percentage of EdU-negative (MCF7; [6]): 27.1 ± 1.1%; percentage of EdU-negative (MCF7; [7]): 26.7 ± 1.6%; percentage of EdU-negative (hTERT-HMEC; [4]): 4.78 ± 0.41%; percentage of EdU-negative (hTERT-HMEC; [5]): 4.9 ± 0.48%; percentage of EdU-negative (hTERT-HMEC; [6]): 7.18 ± 0.61%; percentage of EdU-negative (hTERT-HMEC; [7]): 10.5 ± 2%
